Experimental data as given in publication PMC9784018, “Rational Strategy for Designing Peptidomimetic Small Molecules Based on Cyclic Peptides Targeting Protein–Protein Interaction between CTLA-4 and B7-1” (Pharmaceuticals, 2022).

How the values were obtained:
[1] = target: CTLA-4 (coated for ELISA), P16410; test: ELISA; conditions: chain shown with the change; CTLA-4 coated at 5 μg/mL on the ELISA plate
[2] = target: CTLA-4 of the CTLA-4:B7-1[Biotinylated] Inhibitor Screening Assay kit (UniProt P16410); test: ELISA; CTLA-4:B7-1[Biotinylated] Inhibitor Screening Assay kit (BPS Bioscience) with the MBP–peptide–His-tag fusion protein; data not shown
[3] = target: CTLA-4 (coated for ELISA) (UniProt P16410); test: ELISA; CTLA-4 (5 μg/mL) coated on 384-well plate; purified MBP–peptide–His-tag fusion in 15-point two-fold dilution from 14 μM to 0.85 nM in PBS with 0.5% BSA, 1 h; detected with anti-FLAG M2 peroxidase antibody; EC50 = midpoint concentration

CTLA-4 (coated for ELISA), P16410, sequence (P16410 36-161): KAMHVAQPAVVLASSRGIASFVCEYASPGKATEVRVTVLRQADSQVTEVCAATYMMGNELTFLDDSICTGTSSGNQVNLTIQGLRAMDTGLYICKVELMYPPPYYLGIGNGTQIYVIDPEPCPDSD

Row | EC50 [1] | IC50 [2] | EC50 [3] | Binder
1 | 81.8 nM |  |  | CLHPFLPIVSHHFCGR [MBP–C4-302–His-tag fusion protein M1L; L6P; V7I; G(+2)R]
2 |  | 1360 nM | 74.7 nM | CMHPFLPIVSHHFCER [MBP–C4m-3127 peptide–His-tag fusion protein]
